This note sets out measurements from PMC9991925 (2022).

One assay deals with Fc(aMD4ds)B3 (human, UniProt P01857 104-330 = IgG part). Nature of the assay: SPR.
In another assay the target is Fc(aMD4)B2 (human, UniProt P01857 104-330 = IgG part). Nature of the assay: SPR. Background: SPR reads the build-up and loss of mass on a sensor chip optically.
In the next assay the target is Fc(aMD4)T1 (human, UniProt P01857 104-330 = IgG part). Nature of the assay: SPR.
Another assay concerns the target Fc(aMD4)B1 (human, UniProt P01857 104-330 = IgG part). As to the kind of experiment: SPR.
Another assay has as its target Fc(aMD4)B3 (human, UniProt P01857 104-330 = IgG part). As to the kind of experiment: SPR.
For the next assay, the target named is Fc(aMD4)T3. Nature of the assay: SPR.
Another assay has as its target Fc(aMD4)T2 (human, UniProt P01857 104-330 = IgG part). Nature of the assay: SPR.
A further assay concerns the target Fc(aMD4)M2 (human, UniProt P01857 104-330 = IgG part). As to the kind of experiment: SPR.
In another assay the target is Fc(aMD4ds)T1 (human, UniProt P01857 104-330 = IgG part). As to the kind of experiment: SPR.
The next assay concerns the target recombinant mouse TfR (mouse, UniProt Q62351 1-763). Nature of the assay: ELISA.

recombinant mouse TfR, sequence (Q62351 89-763): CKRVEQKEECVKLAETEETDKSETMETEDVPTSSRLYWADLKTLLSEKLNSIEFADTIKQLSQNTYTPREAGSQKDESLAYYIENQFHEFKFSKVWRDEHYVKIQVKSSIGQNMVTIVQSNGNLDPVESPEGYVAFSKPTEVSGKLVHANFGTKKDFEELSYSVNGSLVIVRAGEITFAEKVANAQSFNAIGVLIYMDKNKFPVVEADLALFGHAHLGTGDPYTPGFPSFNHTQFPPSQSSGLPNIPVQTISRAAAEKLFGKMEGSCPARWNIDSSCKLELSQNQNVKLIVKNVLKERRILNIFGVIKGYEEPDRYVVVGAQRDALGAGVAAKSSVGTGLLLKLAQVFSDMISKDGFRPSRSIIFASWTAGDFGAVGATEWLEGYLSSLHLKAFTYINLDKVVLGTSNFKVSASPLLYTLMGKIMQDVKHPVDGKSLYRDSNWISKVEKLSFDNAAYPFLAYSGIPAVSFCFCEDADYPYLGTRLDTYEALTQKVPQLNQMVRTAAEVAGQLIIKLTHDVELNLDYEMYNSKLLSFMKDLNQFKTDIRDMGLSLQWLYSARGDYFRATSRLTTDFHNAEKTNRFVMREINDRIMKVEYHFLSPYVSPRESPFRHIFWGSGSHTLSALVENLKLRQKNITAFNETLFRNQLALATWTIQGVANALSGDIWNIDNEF

B1: ectodomain fragment of human Met (MetECD, 1-931), biotinylated (domain or fragment)
chain: ECKEALAKSEMNVNMKYQLPNFTAETPIQNVILHEHHIFLGATNYIYVLNEEDLQKVAEYKTGPVLEHPDCFPCQDCSSKANLSGGVWKDNINMALVVDTYYDDQLISCGSVNRGTCQRHVFPHNHTADIQSEVHCIFSPQIEEPSQCPDCVVSALGAKVLSSVKDRFINFFVGNTINSSYFPDHPLHSISVRRLKETKDGFMFLTDQSYIDVLPEFRDSYPIKYVHAFESNNFIYFLTVQRETLDAQTFHTRIIRFCSINSGLHSYMEMPLECILTEKRKKRSTKKEVFNILQAAYVSKPGAQLARQIGASLNDDILFGVFAQSKPDSAEPMDRSAMCAFPIKYVNDFFNKIVNKNNVRCLQHFYGPNHEHCFNRTLLRNSSGCEARRDEYRTEFTTALQRVDLFMGQFSEVLLTSISTFIKGDLTIANLGTSEGRFMQVVVSRSGPSTPHVNFLLDSHPVSPEVIVEHTLNQNGYTLVITGKKITKIPLNGLGCRHFQSCSQCLSAPPFVQCGWCHDKCVRSEECLSGTWTQQICLPAIYKVFPNSAPLEGGTRLTICGWDFGFRRNNKFDLKKTRVLLGNESCTLTLSESTMNTLKCTVGPAMNKHFNMSIIISNGHGTTQYSTFSYVDPVITSISPKYGPMAGGTLLTLTGNYLNSGNSRHISIGGKTCTLKSVSNSILECYTPAQTISTEFAVKLKIDLANRETSIFSYREDPIVYEIHPTKSFISGGSTITGVGKNLNSVSVPRMVINVHEAGRNFTVACQHRSNSEIICCTTPSLQQLNLQLPLKTKAFFMLDGILSKYFDLIYVHNPVFKPFEKPVMISMGNENVLEIKGNDIDPEAVKGEVLKVGNKSCENIHLHSEAVLCTVPNDLLKLNSELNIEWKQAISSTVLGKVIVQPDQNF
modifications: biotin on the biotin acceptor sequence (BirA-mediated)
Broadly, the Kd is the constant that tells how readily two partners part at equilibrium. Take B1: the Kd in the assay with Fc(aMD4ds)B3 was 3.7 nM; in the assay with Fc(aMD4)B2 it was 79.1 nM; with Fc(aMD4)T1, 75.8 nM; with Fc(aMD4)B1 it was 10.8 nM; in the assay with Fc(aMD4)B3 it was 4 nM; with Fc(aMD4)T3, 652 nM. For the same molecule, the equilibrium dissociation constant (Kd) is 401 nM in the assay with Fc(aMD4)T2, 18.9 nM with Fc(aMD4)M2 and 73.4 nM with Fc(aMD4ds)T1.

B2: sTfR(aMD4) (antibody, V domains shown)
VH: EVQLVESGGGLVQPGNSLTLSCVASGFTFSNYGMHWIRQAPKKGLEWIAMIYYDSSKMNYADTVKGRFTISRDNSKNTLYLEMNSLRSEDTAMYYCAVPTSHYVVDVWGQGVSVTVSS
VL: DIQMTQSPASLSASLEEIVTITCQASQDIGNWLAWYQQKPGKSPQLLIYGATSLADGVPSRFSGSRSGTQFSLKISRVQVEDIGIYYCLQAYNTPWTFGGGTKLELK
On to B2, for which the Kd in the assay with recombinant mouse TfR was 30.8 nM.

B3: dTfR(aMD4) (antibody, V domains shown)
VH: EVQLVESGGGLVQPGNSLTLSCVASGFTFSNYGMHWIRQAPKKGLEWIAMIYYDSSKMNYADTVKGRFTISRDNSKNTLYLEMNSLRSEDTAMYYCAVPTSHYVVDVWGQGVSVTVSS
VL: DIQMTQSPASLSASLEEIVTITCQASQDIGNWLAWYQQKPGKSPQLLIYGATSLADGVPSRFSGSRSGTQFSLKISRVQVEDIGIYYCLQAYNTPWTFGGGTKLELK
For the molecule B3, the Kd with recombinant mouse TfR came out at 0.36 nM.
